Each block holds one molecule with its values, some of them ahead of it.
What was measured:
[1] = biological target: bovine adenylyl cyclase AC8, purified, tag-free (bovine) (UniProt E1BQ12)
[2] = biological target: bovine adenylyl cyclase AC8, purified, tag-free (bovine) (UniProt E1BQ12); remark: listed apart in the source
[3] = biological target: bovine adenylyl cyclase AC8, purified, tag-free (bovine, UniProt E1BQ12 1-1253); assay: cell-based or functional assay

inhibition of AC8 adenylyl cyclase activity (cAMP accumulation) by Gβγ, IC50 [1]: 400 nM
Molecule: G protein beta gamma subunit (Gβ1γ2) (from UniProt P62871 1-340; P63212 1-71) (complex)

activation of AC8 adenylyl cyclase activity (cAMP accumulation) by CaM in the absence of CaCl2, EC50 [2]: 86.6 nM
activation of AC8 adenylyl cyclase activity (cAMP accumulation) by CaM in the presence of CaCl2, EC50 [2]: 4.1 nM
Molecule: Calmodulin (from bovine testes, Sigma-Aldrich P1431) (from UniProt P62157 1-149) (natural protein)

activation of AC8 adenylyl cyclase activity (cAMP accumulation) by GTPγS-bound Gαs, EC50 [3]: 25.5 nM
B1: bovine G protein αs subunit, GTPγS-activated (natural protein, UniProt P04896-1 1-394, looked up)
chain: MGCLGNSKTEDQRNEEKAQREANKKIEKQLQKDKQVYRATHRLLLLGAGESGKSTIVKQMRILHVNGFNGEGGEEDPQAARSNSDGEKATKVQDIKNNLKEAIETIVAAMSNLVPPVELANPENQFRVDYILSVMNVPDFDFPPEFYEHAKALWEDEGVRACYERSNEYQLIDCAQYFLDKIDVIKQDDYVPSDQDLLRCRVLTSGIFETKFQVDKVNFHMFDVGGQRDERRKWIQCFNDVTAIIFVVASSSYNMVIREDNQTNRLQEALNLFKSIWNNRWLRTISVILFLNKQDLLAEKVLAGKSKIEDYFPEFARYTTPEDATPEPGEDPRVTRAKYFIRDEFLRISTASGDGRHYCYPHFTCAVDTENIRRVFNDCRDIIQRMHLRQYELL

Reference: article PMC10933263 (EMBO Reports, 2024)
